Sequences and labels used below:
B1: Hairpin Ribozyme (parent)
chain: GUCCUCUUUCACGUGCGCGUGAAAGAGAGAAGUGAACCAGAGAAACACACGUUGUGGUAUAUUACCUGGUA

In this data set the parent is B1. The experiment in a line: self-cleavage, relative activity (ratio to wild type); higher = more cleavage; co-transcriptional.
For GUCCUCUUUCACGUGCGCGUGAAAGAGAGAAGUGAACCAGAGAAACACACGUUGUGCUAUAUUAGCUGGUA, the self-cleavage worked out at 0.154.

For the variant GUCCUCUUUCACGUGCGCGUGAAAGAGAGAAGUGAACCAGAGAAACACACGUUGUGUUAGAUUACCUGGUA, the self-cleavage amounted to 0.177.

Consider GUCCUCUUUCACGUGCGCGUGAAAGAGAGAAGUGAACCAGAGAAACACACGUUGUUGUAUAUUACCUUGUA, for which the self-cleavage is 0.276.

For the variant GUCCUCUUUCACGUGCGCGUGAAAGAGAGAAGUGAACCAGAGAAACACACGUUGUGCUAUAUUGCCUGGUA, the self-cleavage was determined as 0.126.

Consider GUCCUCUUUCACGUGCGCGUGAAAGAGAGAAGUGAACCAGAGAAACACACGUUGUGGAAUAUUACCGGGUA, for which the self-cleavage turned out to be 0.135.

Turning to GUCCUCUUUCACGUGCGCGUGAAAGAGAGAAGUGAACCAGAGAAACACACGUUGUGCUAUAUUACCUGGGA, the self-cleavage is 0.119.

Turning to GUCCUCUUUCACGUGCGCGUGAAAGAGAGAAGUGAACCAGAGAAACACACGUUGUGGCAUAUUUCCUGGUA, the self-cleavage stood at 0.0829.

Turning to GUCCUCUUUCACGUGCGCGUGAAAGAGAGAAGUGAACCAGAGAAACACACGUUGUGAUAUAUUACCCGGUA, the self-cleavage is 0.123.

On to GUCCUCUUUCACGUGCGCGUGAAAGAGAGAAGUGAACCAGAGAAACACACGUUGUGAUAUAUUACCGGGUA, for which the self-cleavage was 0.191.

Turning to GUCCUCUUUCACGUGCGCGUGAAAGAGAGAAGUGAACCAGAGAAACACACGUUGUGAUAUAUUACUUGGUA, the self-cleavage was 0.2.

Regarding GUCCUCUUUCACGUGCGCGUGAAAGAGAGAAGUGAACCAGAGAAACACACGUUGUGAUAUAUUACGUGGUA, the self-cleavage stood at 0.103.

As for GUCCUCUUUCACGUGCGCGUGAAAGAGAGAAGUGAACCAGAGAAACACACGUUGUGAUAGAUUACCUGGUA, the self-cleavage was found to be 0.21.

Turning to GUCCUCUUUCACGUGCGCGUGAAAGAGAGAAGUGAACCAGAGAAACACACGUUGUGGGAUAUUCCCUGGUA, the self-cleavage was 0.163.

Regarding GUCCUCUUUCACGUGCGCGUGAAAGAGAGAAGUGAACCAGAGAAACACACGUUGUGGCAUAUUAGCUGGUA, the self-cleavage was 0.255.

As to GUCCUCUUUCACGUGCGCGUGAAAGAGAGAAGUGAACCAGAGAAACACACGUUGUGGCAUAUUAACUGGUA, the self-cleavage worked out at 1.11.

As to GUCCUCUUUCACGUGCGCGUGAAAGAGAGAAGUGAACCAGAGAAACACACGUUGUGAUAUAUUACCUCGUA, the self-cleavage was 0.207.

For the variant GUCCUCUUUCACGUGCGCGUGAAAGAGAGAAGUGAACCAGAGAAACACACGUUGUGAUAUAUUACCUUGUA, the self-cleavage was determined as 0.169.

In the case of GUCCUCUUUCACGUGCGCGUGAAAGAGAGAAGUGAACCAGAGAAACACACGUUGUGCUAUAUGACCUGGUA, the self-cleavage came out at 0.18.

On to GUCCUCUUUCACGUGCGCGUGAAAGAGAGAAGUGAACCAGAGAAACACACGUUGUGCUACAUUACCUGGUA, for which the self-cleavage came out at 0.156.

Turning to GUCCUCUUUCACGUGCGCGUGAAAGAGAGAAGUGAACCAGAGAAACACACGUUGUGGAAUAUUUCCUGGUA, the self-cleavage was determined as 0.237.

For the variant GUCCUCUUUCACGUGCGCGUGAAAGAGAGAAGUGAACCAGAGAAACACACGUUGUGGAAUAUUCCCUGGUA, the self-cleavage came out at 0.143.

With GUCCUCUUUCACGUGCGCGUGAAAGAGAGAAGUGAACCAGAGAAACACACGUUGUGAUAUAUUUCCUGGUA, the self-cleavage was found to be 0.119.

With GUCCUCUUUCACGUGCGCGUGAAAGAGAGAAGUGAACCAGAGAAACACACGUUGUGUUAUACUACCUGGUA, the self-cleavage came to 0.158.

Turning to GUCCUCUUUCACGUGCGCGUGAAAGAGAGAAGUGAACCAGAGAAACACACGUUGUUGUAUACUACCUGGUA, the self-cleavage amounted to 0.122.

Consider GUCCUCUUUCACGUGCGCGUGAAAGAGAGAAGUGAACCAGAGAAACACACGUUGUUGUAUAAUACCUGGUA, for which the self-cleavage was 0.186.

For the variant GUCCUCUUUCACGUGCGCGUGAAAGAGAGAAGUGAACCAGAGAAACACACGUUGUGCUAUAUUACCUAGUA, the self-cleavage worked out at 0.195.

On to GUCCUCUUUCACGUGCGCGUGAAAGAGAGAAGUGAACCAGAGAAACACACGUUGUGCUAUAUUACCUCGUA, for which the self-cleavage is 0.21.

On to GUCCUCUUUCACGUGCGCGUGAAAGAGAGAAGUGAACCAGAGAAACACACGUUGUGGCAUUUUACCUGGUA, for which the self-cleavage was 0.38.

Regarding GUCCUCUUUCACGUGCGCGUGAAAGAGAGAAGUGAACCAGAGAAACACACGUUGUGCUAUAUUACAUGGUA, the self-cleavage came to 0.15.

On to GUCCUCUUUCACGUGCGCGUGAAAGAGAGAAGUGAACCAGAGAAACACACGUUGUGGCAGAUUACCUGGUA, for which the self-cleavage was 0.742.

Turning to GUCCUCUUUCACGUGCGCGUGAAAGAGAGAAGUGAACCAGAGAAACACACGUUGUGAUAUAUUACCUGGAA, the self-cleavage worked out at 0.134.

For GUCCUCUUUCACGUGCGCGUGAAAGAGAGAAGUGAACCAGAGAAACACACGUUGUGUUAUAUUACCUGGUG, the self-cleavage is 0.254.

Regarding GUCCUCUUUCACGUGCGCGUGAAAGAGAGAAGUGAACCAGAGAAACACACGUUGUUGUAUAUAACCUGGUA, the self-cleavage was determined as 0.157.

As for GUCCUCUUUCACGUGCGCGUGAAAGAGAGAAGUGAACCAGAGAAACACACGUUGUGAUAUAUUACCUGCUA, the self-cleavage is 0.141.

GUCCUCUUUCACGUGCGCGUGAAAGAGAGAAGUGAACCAGAGAAACACACGUUGUGAUAUAUUACCUGUUA: the self-cleavage was determined as 0.121.

Consider GUCCUCUUUCACGUGCGCGUGAAAGAGAGAAGUGAACCAGAGAAACACACGUUGUGGAAUAUUAGCUGGUA, for which the self-cleavage amounted to 0.0985.

On to GUCCUCUUUCACGUGCGCGUGAAAGAGAGAAGUGAACCAGAGAAACACACGUUGUGGAAUACUACCUGGUA, for which the self-cleavage amounted to 0.12.

Take GUCCUCUUUCACGUGCGCGUGAAAGAGAGAAGUGAACCAGAGAAACACACGUUGUGGAAUAUAACCUGGUA: the self-cleavage turned out to be 0.14.

On to GUCCUCUUUCACGUGCGCGUGAAAGAGAGAAGUGAACCAGAGAAACACACGUUGUGCUAUAUUACCUGGUU, for which the self-cleavage was determined as 0.157.

Regarding GUCCUCUUUCACGUGCGCGUGAAAGAGAGAAGUGAACCAGAGAAACACACGUUGUGCUAUAUUACCUGGUG, the self-cleavage stood at 0.201.

As to GUCCUCUUUCACGUGCGCGUGAAAGAGAGAAGUGAACCAGAGAAACACACGUUGUGCUAUAUUACCUGGUC, the self-cleavage stood at 0.356.

For the variant GUCCUCUUUCACGUGCGCGUGAAAGAGAGAAGUGAACCAGAGAAACACACGUUGUGCUAUGUUACCUGGUA, the self-cleavage turned out to be 0.0894.

GUCCUCUUUCACGUGCGCGUGAAAGAGAGAAGUGAACCAGAGAAACACACGUUGUGGGAUGUUACCUGGUA: the self-cleavage was determined as 0.111.

For the variant GUCCUCUUUCACGUGCGCGUGAAAGAGAGAAGUGAACCAGAGAAACACACGUUGUGGGAUCUUACCUGGUA, the self-cleavage was 0.32.

For the variant GUCCUCUUUCACGUGCGCGUGAAAGAGAGAAGUGAACCAGAGAAACACACGUUGUGGCAUAUUACCUGGUC, the self-cleavage is 1.21.

As to GUCCUCUUUCACGUGCGCGUGAAAGAGAGAAGUGAACCAGAGAAACACACGUUGUGUUAUAUUACCUCGUA, the self-cleavage amounted to 0.211.

As to GUCCUCUUUCACGUGCGCGUGAAAGAGAGAAGUGAACCAGAGAAACACACGUUGUGUUAUAUUACCUAGUA, the self-cleavage worked out at 0.188.

Consider GUCCUCUUUCACGUGCGCGUGAAAGAGAGAAGUGAACCAGAGAAACACACGUUGUGAUAUAUUAGCUGGUA, for which the self-cleavage was found to be 0.291.

As to GUCCUCUUUCACGUGCGCGUGAAAGAGAGAAGUGAACCAGAGAAACACACGUUGUGAUAUAUUAACUGGUA, the self-cleavage was 0.222.

Regarding GUCCUCUUUCACGUGCGCGUGAAAGAGAGAAGUGAACCAGAGAAACACACGUUGUGGGUUAUUACCUGGUA, the self-cleavage stood at 0.242.

Regarding GUCCUCUUUCACGUGCGCGUGAAAGAGAGAAGUGAACCAGAGAAACACACGUUGUGGGCUAUUACCUGGUA, the self-cleavage was 0.149.

In the case of GUCCUCUUUCACGUGCGCGUGAAAGAGAGAAGUGAACCAGAGAAACACACGUUGUGAUAUAUUACCUGGUG, the self-cleavage was 0.112.

With GUCCUCUUUCACGUGCGCGUGAAAGAGAGAAGUGAACCAGAGAAACACACGUUGUGAUAUAUUACCUGGUC, the self-cleavage was 0.4.

On to GUCCUCUUUCACGUGCGCGUGAAAGAGAGAAGUGAACCAGAGAAACACACGUUGUUGAAUAUUACCUGGUA, for which the self-cleavage turned out to be 0.0912.

Consider GUCCUCUUUCACGUGCGCGUGAAAGAGAGAAGUGAACCAGAGAAACACACGUUGUUCUAUAUUACCUGGUA, for which the self-cleavage was determined as 0.144.

On to GUCCUCUUUCACGUGCGCGUGAAAGAGAGAAGUGAACCAGAGAAACACACGUUGUUUUAUAUUACCUGGUA, for which the self-cleavage is 0.204.

Turning to GUCCUCUUUCACGUGCGCGUGAAAGAGAGAAGUGAACCAGAGAAACACACGUUGUGAGAUAUUACCUGGUA, the self-cleavage worked out at 0.123.

Regarding GUCCUCUUUCACGUGCGCGUGAAAGAGAGAAGUGAACCAGAGAAACACACGUUGUGAAAUAUUACCUGGUA, the self-cleavage amounted to 0.169.

In the case of GUCCUCUUUCACGUGCGCGUGAAAGAGAGAAGUGAACCAGAGAAACACACGUUGUGACAUAUUACCUGGUA, the self-cleavage came to 0.21.

On to GUCCUCUUUCACGUGCGCGUGAAAGAGAGAAGUGAACCAGAGAAACACACGUUGUGUUAUCUUACCUGGUA, for which the self-cleavage came to 0.0714.

Regarding GUCCUCUUUCACGUGCGCGUGAAAGAGAGAAGUGAACCAGAGAAACACACGUUGUGUUAUAUUACCUGAUA, the self-cleavage came out at 0.149.

For GUCCUCUUUCACGUGCGCGUGAAAGAGAGAAGUGAACCAGAGAAACACACGUUGUGGAAUAUUACCUGGUG, the self-cleavage came out at 0.768.

In the case of GUCCUCUUUCACGUGCGCGUGAAAGAGAGAAGUGAACCAGAGAAACACACGUUGUGUUUUAUUACCUGGUA, the self-cleavage was 0.411.

For GUCCUCUUUCACGUGCGCGUGAAAGAGAGAAGUGAACCAGAGAAACACACGUUGUGGAAUAUUACGUGGUA, the self-cleavage was found to be 0.165.

As for GUCCUCUUUCACGUGCGCGUGAAAGAGAGAAGUGAACCAGAGAAACACACGUUGUGUUAUAUUACCUGGCA, the self-cleavage came to 0.075.

Turning to GUCCUCUUUCACGUGCGCGUGAAAGAGAGAAGUGAACCAGAGAAACACACGUUGUGUUAUAUUACGUGGUA, the self-cleavage turned out to be 0.

Turning to GUCCUCUUUCACGUGCGCGUGAAAGAGAGAAGUGAACCAGAGAAACACACGUUGUGCGAUAUUACCUGGUA, the self-cleavage worked out at 0.277.

Consider GUCCUCUUUCACGUGCGCGUGAAAGAGAGAAGUGAACCAGAGAAACACACGUUGUGGACUAUUACCUGGUA, for which the self-cleavage came to 0.252.

As for GUCCUCUUUCACGUGCGCGUGAAAGAGAGAAGUGAACCAGAGAAACACACGUUGUGGAUUAUUACCUGGUA, the self-cleavage came to 0.183.

As for GUCCUCUUUCACGUGCGCGUGAAAGAGAGAAGUGAACCAGAGAAACACACGUUGUGGCAUAUUACCCGGUA, the self-cleavage stood at 0.205.

With GUCCUCUUUCACGUGCGCGUGAAAGAGAGAAGUGAACCAGAGAAACACACGUUGUGCUAUAAUACCUGGUA, the self-cleavage turned out to be 0.183.

As for GUCCUCUUUCACGUGCGCGUGAAAGAGAGAAGUGAACCAGAGAAACACACGUUGUGCUAUACUACCUGGUA, the self-cleavage turned out to be 0.15.

Turning to GUCCUCUUUCACGUGCGCGUGAAAGAGAGAAGUGAACCAGAGAAACACACGUUGUGGAAUAUUACCUGUUA, the self-cleavage stood at 0.175.

For GUCCUCUUUCACGUGCGCGUGAAAGAGAGAAGUGAACCAGAGAAACACACGUUGUGGCGUAUUACCUGGUA, the self-cleavage came to 0.272.

For GUCCUCUUUCACGUGCGCGUGAAAGAGAGAAGUGAACCAGAGAAACACACGUUGUGGCCUAUUACCUGGUA, the self-cleavage amounted to 0.304.

Regarding GUCCUCUUUCACGUGCGCGUGAAAGAGAGAAGUGAACCAGAGAAACACACGUUGUGGCAUAUUACCUGUUA, the self-cleavage turned out to be 0.302.

The values above are taken from the RNAGym collection of RNA variant scans (doi:10.7554/elife.80360).
